The labels stand for the following.
B1: U4/U6 small nuclear ribonucleoprotein Prp31 (Homo sapiens), Q8WWY3 (parent)
chain: MSLADELLADLEEAAEEEEGGSYGEEEEEPAIEDVQEETQLDLSGDSVKTIAKLWDSKMFAEIMMKIEEYISKQAKASEVMGPVEAAPEYRVIVDANNLTVEIENELNIIHKFIRDKYSKRFPELESLVPNALDYIRTVKELGNSLDKCKNNENLQQILTNATIMVVSVTASTTQGQQLSEEELERLEEACDMALELNASKHRIYEYVESRMSFIAPNLSIIIGASTAAKIMGVAGGLTNLSKMPACNIMLLGAQRKTLSGFSSTSVLPHTGYIYHSDIVQSLPPDLRRKAARLVAAKCTLAARVDSFHESTEGKVGYELKDEIERKFDKWQEPPPVKQVKPLPAPLDGQRKKRGGRRYRKMKERLGLTEIRKQANRMSFGEIEEDAYQEDLGFSLGHLGKSGSGRVRQTQVNEATKARISKTLQRTLQKQSVVYGGKSTIRDRSSGTASSVAFTPLQGLEIVNPQAAEKKVAEANQKYFSSMAEFLKVKGEKSGLMST
partner: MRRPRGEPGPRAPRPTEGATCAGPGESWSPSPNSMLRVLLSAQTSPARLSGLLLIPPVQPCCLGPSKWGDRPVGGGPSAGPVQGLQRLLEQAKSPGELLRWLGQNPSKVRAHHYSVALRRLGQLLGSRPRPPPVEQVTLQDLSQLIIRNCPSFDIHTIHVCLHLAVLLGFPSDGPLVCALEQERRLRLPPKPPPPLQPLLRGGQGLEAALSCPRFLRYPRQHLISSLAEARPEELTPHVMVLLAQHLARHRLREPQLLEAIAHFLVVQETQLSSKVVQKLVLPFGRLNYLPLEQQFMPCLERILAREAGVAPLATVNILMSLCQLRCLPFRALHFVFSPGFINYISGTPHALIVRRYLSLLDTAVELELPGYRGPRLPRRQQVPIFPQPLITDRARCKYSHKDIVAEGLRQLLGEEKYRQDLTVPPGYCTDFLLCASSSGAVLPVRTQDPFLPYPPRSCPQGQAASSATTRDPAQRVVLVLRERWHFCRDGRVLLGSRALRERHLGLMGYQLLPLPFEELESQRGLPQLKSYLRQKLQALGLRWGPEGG
B2: Beta-crystallin A4 (Homo sapiens), P53673 (parent)
chain: MTLQCTKSAGPWKMVVWDEDGFQGRRHEFTAECPSVLELGFETVRSLKVLSGAWVGFEHAGFQGQQYILERGEYPSWDAWGGNTAYPAERLTSFRPAACANHRDSRLTIFEQENFLGKKGELSDDYPSLQAMGWEGNEVGSFHVHSGAWVCSQFPGYRGFQYVLECDHHSGDYKHFREWGSHAPTFQVQSIRRIQQ
partner: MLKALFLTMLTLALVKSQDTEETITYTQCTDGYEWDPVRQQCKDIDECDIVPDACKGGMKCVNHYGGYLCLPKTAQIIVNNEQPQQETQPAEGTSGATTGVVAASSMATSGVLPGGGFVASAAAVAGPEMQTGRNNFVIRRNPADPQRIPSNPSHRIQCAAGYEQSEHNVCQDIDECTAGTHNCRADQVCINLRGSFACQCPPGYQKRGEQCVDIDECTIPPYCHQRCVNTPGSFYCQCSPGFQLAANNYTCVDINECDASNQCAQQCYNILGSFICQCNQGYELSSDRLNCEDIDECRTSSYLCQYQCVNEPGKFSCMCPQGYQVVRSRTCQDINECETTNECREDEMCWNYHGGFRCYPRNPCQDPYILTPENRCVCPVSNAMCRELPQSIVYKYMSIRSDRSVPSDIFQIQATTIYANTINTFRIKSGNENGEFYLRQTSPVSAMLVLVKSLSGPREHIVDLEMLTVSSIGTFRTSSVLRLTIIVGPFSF
B3: Low density lipoprotein receptor adapter protein 1 (Homo sapiens), Q5SW96 (parent)
chain: MDALKSAGRALIRSPSLAKQSWGGGGRHRKLPENWTDTRETLLEGMLFSLKYLGMTLVEQPKGEELSAAAIKRIVATAKASGKKLQKVTLKVSPRGIILTDNLTNQLIENVSIYRISYCTADKMHDKVFAYIAQSQHNQSLECHAFLCTKRKMAQAVTLTVAQAFKVAFEFWQVSKEEKEKRDKASQEGGDVLGARQDCTPSLKSLVATGNLLDLEETAKAPLSTVSANTTNMDEVPRPQALSGSSVVWELDDGLDEAFSRLAQSRTNPQVLDTGLTAQDMHYAQCLSPVDWDKPDSSGTEQDDLFSF
partner: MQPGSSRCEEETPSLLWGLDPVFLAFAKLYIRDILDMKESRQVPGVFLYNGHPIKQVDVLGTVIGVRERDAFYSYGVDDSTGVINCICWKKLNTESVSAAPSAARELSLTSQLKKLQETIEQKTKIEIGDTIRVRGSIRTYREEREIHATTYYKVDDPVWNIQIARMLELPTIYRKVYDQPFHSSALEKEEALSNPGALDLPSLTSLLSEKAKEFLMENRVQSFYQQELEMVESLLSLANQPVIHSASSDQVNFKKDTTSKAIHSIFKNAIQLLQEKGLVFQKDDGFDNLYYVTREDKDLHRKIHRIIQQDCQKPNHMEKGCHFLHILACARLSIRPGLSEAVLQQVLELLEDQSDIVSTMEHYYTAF
B4: Sulfotransferase 2B1 (Homo sapiens), O00204 (parent)
chain: MDGPAEPQIPGLWDTYEDDISEISQKLPGEYFRYKGVPFPVGLYSLESISLAENTQDVRDDDIFIITYPKSGTTWMIEIICLILKEGDPSWIRSVPIWERAPWCETIVGAFSLPDQYSPRLMSSHLPIQIFTKAFFSSKAKVIYMGRNPRDVVVSLYHYSKIAGQLKDPGTPDQFLRDFLKGEVQFGSWFDHIKGWLRMKGKDNFLFITYEELQQDLQGSVERICGFLGRPLGKEALGSVVAHSTFSAMKANTMSNYTLLPPSLLDHRRGAFLRKGVCGDWKNHFTVAQSEAFDRAYRKQMRGMPTFPWDEDPEEDGSPDPEPSPEPEPKPSLEPNTSLEREPRPNSSPSPSPGQASETPHPRPS
partner: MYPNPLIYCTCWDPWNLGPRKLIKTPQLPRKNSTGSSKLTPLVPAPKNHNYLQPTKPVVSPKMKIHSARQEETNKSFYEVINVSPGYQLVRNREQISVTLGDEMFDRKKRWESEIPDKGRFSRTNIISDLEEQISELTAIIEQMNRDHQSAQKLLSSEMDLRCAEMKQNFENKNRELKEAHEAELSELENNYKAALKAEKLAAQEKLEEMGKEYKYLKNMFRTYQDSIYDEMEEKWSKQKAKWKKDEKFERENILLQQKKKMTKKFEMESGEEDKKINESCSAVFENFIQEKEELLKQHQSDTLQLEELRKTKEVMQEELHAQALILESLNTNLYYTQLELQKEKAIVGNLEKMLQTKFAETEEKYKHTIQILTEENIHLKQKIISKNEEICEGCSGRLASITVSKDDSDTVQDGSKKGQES
B5: Acetylcholine receptor subunit gamma (Homo sapiens), P07510-2 (parent)
chain: MHGGQGPLLLLLLLAVCLGAQGRNQEERLLADLMQNYDPNLRPAERDSDVVNVSLKLTLTNLISLNEREEALTTNVWIEMQWCDYRLRWDPRDYEGLWVLRVPSTMVWRPDIVLENKSQTYSTNEIDLQLSQEDGQTIEWIFIDPEAFTENGEWAIQHRPAKMLLDPAAPAQEAGHQKVVFYLLIQRKPLFYVINIIAPCVLISSVAILIHFLPAKAGGQKCTVAINVLLAQTVFLFLVAKKVPETSQAVPLISKYLTFLLVVTILIVVNAVVVLNVSLRSPHTHSMARGVRKVFLRLLPQLLRMHVRPLAPAAVQDTQSRLQNGSSGWSITTGEEVALCLPRSELLFQQWQRQGLVAAALEKLEKGPELGLSQFCGSLKQAAPAIQACVEACNLIACARHQQSHFDNGNEEWFLVGRVLDRVCFLAMLSLFICGTAGIFLMAHYNRVPALPFPGDPRPYLPSPD
partner: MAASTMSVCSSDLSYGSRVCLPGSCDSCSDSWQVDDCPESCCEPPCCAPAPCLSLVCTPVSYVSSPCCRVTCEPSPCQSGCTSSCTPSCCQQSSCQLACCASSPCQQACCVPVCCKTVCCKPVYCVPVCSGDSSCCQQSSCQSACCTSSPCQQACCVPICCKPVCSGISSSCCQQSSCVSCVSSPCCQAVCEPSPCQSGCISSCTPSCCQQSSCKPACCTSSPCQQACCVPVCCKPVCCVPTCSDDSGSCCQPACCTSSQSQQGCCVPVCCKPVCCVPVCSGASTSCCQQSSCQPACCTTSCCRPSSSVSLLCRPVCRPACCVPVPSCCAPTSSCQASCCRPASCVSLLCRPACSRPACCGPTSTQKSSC

From IntAct's records for PubMed 25910212 come the findings set out here.

Variants of B1 are the subject of one assay. The following applies: with fastk_human FASTK.
In the case of L107V, the “effect of a mutation on the interaction” value is on record as “with no effect”.

The next assay covers variants of B2. The following applies: with fbln3_human EFEMP1, Q12805.
Take F94S: the “effect of a mutation on the interaction” value is “disrupting interaction strength”.

For L69P, the “effect of a mutation on the interaction” value is reported as “disrupting interaction strength”. Take V36M: the “effect of a mutation on the interaction” value is “disrupting interaction strength”.

Variants of B3 are the subject of a further assay. The following applies: with stn1_human STN1, Q9H668.
As for R238W, the “effect of a mutation on the interaction” value is “with no effect”.

In a further assay the parent is B4. The following applies: with FLACC1, Q96Q35-2.
As to D191N, the “effect of a mutation on the interaction” value was “with no effect”. Take R230H: the “effect of a mutation on the interaction” value was “with no effect”.

The variants in another assay derive from B5. The conditions noted are these: with kr107_human KRTAP10-7, P60409.
For R86C, the “effect of a mutation on the interaction” value is on record as “disrupting interaction strength”. Still for that read-out and setting: for V107G the value was “disrupting interaction strength”; for R187C, “disrupting interaction strength”.
